# Measured values as given in patent US20240076386A1 (Pfizer, published 2024).
# Numbering of substitutions follows the chain as printed.
# T1: cynomolgus monkey E-selectin extracellular domain with 10 His purification tail (cynomolgus monkey, UniProt P16581 22-554 (human entry))
# T1 construct: also called cynomolgus E-selectin; truncated cynomolgus monkey E-selectin
# T1 chain: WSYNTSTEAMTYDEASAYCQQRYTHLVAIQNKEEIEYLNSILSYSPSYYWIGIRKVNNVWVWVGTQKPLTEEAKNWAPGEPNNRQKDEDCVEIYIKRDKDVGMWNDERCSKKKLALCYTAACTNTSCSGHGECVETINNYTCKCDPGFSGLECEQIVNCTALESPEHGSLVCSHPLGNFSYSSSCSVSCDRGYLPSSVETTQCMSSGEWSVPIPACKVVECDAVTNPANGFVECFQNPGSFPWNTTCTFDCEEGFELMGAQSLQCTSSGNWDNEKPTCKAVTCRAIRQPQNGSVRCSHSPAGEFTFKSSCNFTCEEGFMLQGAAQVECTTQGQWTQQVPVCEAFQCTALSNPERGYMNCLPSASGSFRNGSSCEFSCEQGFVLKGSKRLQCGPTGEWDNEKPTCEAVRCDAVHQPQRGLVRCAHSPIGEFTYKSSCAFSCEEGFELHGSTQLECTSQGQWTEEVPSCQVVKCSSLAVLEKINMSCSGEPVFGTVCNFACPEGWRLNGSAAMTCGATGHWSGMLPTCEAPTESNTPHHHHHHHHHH
# T2: soluble recombinant human P-selectin (human, UniProt P16109 42-771, limits assumed)
# T2 sequence (looked up): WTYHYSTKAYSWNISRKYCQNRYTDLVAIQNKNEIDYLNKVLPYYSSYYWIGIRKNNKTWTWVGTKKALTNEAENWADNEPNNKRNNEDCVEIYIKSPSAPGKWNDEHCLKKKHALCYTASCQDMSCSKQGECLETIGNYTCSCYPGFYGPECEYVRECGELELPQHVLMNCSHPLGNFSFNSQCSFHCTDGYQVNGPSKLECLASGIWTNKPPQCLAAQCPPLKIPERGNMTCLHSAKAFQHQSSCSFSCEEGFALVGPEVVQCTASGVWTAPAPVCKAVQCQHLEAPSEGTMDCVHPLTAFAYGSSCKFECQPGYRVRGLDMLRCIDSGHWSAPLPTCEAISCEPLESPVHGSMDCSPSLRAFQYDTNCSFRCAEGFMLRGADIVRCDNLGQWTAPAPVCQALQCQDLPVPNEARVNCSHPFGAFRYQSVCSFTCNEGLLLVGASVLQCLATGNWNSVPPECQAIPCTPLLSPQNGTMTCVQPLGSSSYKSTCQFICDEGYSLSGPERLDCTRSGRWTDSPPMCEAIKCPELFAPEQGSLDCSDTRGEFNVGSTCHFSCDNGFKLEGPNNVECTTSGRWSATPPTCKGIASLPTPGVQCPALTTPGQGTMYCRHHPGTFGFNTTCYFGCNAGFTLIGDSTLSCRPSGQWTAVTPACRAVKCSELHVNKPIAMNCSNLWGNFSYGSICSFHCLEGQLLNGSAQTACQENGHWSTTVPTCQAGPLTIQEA
# B1: anti-E-selectin antibody 0039 chimera (antibody, human IgG1, kappa, V domains shown)
# VH: QVQLKETGPGLVQPTQTLSITCTVSGFSLTGYYMQWVRQTPGKGLEWMGFIRSSGSTEYNSEFKSRLSISRDTSKNQVFLKMNSLKTEDTGVYYCARCPYKYSSFVYVGVMDAWGQGAPVTVSS
# VL: EIVMTQSPTSMSTSIGERVTLNCKASQTVGINVDWYQQTPGQPPKLLIYGASNRHTGVPDRFTGSGFGRDFTLTISNVEAEDLAVYCCLQYGSIPHTFGPGTKLELKR
# notes: rat VH/VL on effector-null human IgG1 and human kappa
# B2: anti-E-selectin antibody 0159 chimera (antibody, human IgG1, kappa, V domains shown)
# VH: EVQLQQSGAELGKPGTSVKLSCKVSGYNIRSTYMHWVSQRPGKGLEWIGRIDPANGNTIYAEKFKRKATLTADTSSNTAYMQLSQLKSDDRAIYFCAMEVRVSFEYWGQGVMVTVSS
# VL: DIQMTQSPSFLSASVGDRVTINCKASQNINKYLDWYQQKLGEGPKLLIYYTNNLHTGIPSRFSGSGSGTDFTLTISSLQPEDVATYFCLQHDSGYTFGAGTKLELKR
# notes: as for B1
# B3: anti-E-selectin antibody 0170 chimera (antibody, human IgG1, kappa, V domains shown)
# VH: EVQLQQSGAELGKPGTSVKLSCKVSGYSIRSTYMHWVNQRPGKGLEWVGRIDPANGNTIYAERFKNKATLTADTSSNTAYMQLSQLKSDDTAIYFCAVEILGIFDYWGQGVMVTVSS
# VL: B2 VL with N30D, G43A, I48M, Y50N, N53S, D92N
# notes: as for B1
# B4: anti-E-selectin antibody 0180 chimera (antibody, human IgG1, kappa, V domains shown)
# VH: EVQLQQSGAELGKPGTSVKLSCKVSGYKIRSSYMHWVNQRPGKGLEWIGRIDPANGNTIYGDKFKSKATLTSDTSSNTAYIQLSQLKSDDTAIYFCAIDIGTTFDYWGQGVMVTVSS
# VL: DIQMTQSPSFLSASVGDRVTINCKASQHINRYLNWYQQKLGEAPKLLIYDANNLQTGIPSRFSGSGSGTDFTLTISSLQPEDVATYFCLQHNSWPNTFGAGTKLELKR
# notes: as for B1
# B5: anti-E-selectin antibody 0164 chimera (antibody, human IgG1, kappa, V domains shown)
# VH: EVQLQQSGAEFGKPGTSVKLSCKVSGYNIRSSYMHWVNQRPGKGLEWIGRIDPANGNTIYAEKFKIKAILTADSSSNTAYMQLSQLKSDDTAIYFCAMDLYSTSEYWGQGVMVTVSS
# VL: B4 VL with A25T, H28N, D50N, N53S, G64A, S76N, H91D, N96L, A100S, L106I
# notes: as for B1
# B6: humanized anti-E-selectin antibody 0841 (antibody, human IgG1, kappa, V domains shown)
# VH: EVQLVESGGGLVQPGGSLRLSCAASGYNIRSSYMHWVRQAPGKGLEWVARIDPANGNTIYAEKFKIRFTISADNAKNSAYLQMNSLRAEDTAVYYCAMDLYSTSEYWGQGTLVTVSS
# VL: DIQMTQSPSSLSASVGDRVTITCKTSQNINRYLNWYQQKPGKAPKLLIYNANSLQTGVPSRFSGSGSGTDFTLTISSLQPEDFATYFCLQDNSWPLTFGQGTKVEIKR
# notes: effector-null human IgG1, kappa
# B7: optimized anti-E-selectin antibody 1282 (antibody, human IgG1, kappa, V domains shown)
# VH: B6 VH with N28A, S32A, A61V, E62D, K63S, F64V, K65E, I66G
# VL: B6 VL with N30E, N50A, N52S, T56S, S93A
# notes: as for B6
# B8: optimized anti-E-selectin antibody 1448 (antibody, human IgG1, kappa, V domains shown)
# VH: B6 VH with N28A, S32A, A61V, E62D, K63S, F64V, I66E
# VL: B6 VL with N30E, N50A, N52S, T56S, S93A
# notes: as for B6
# B9: optimized anti-E-selectin antibody 1444 (antibody, human IgG1, kappa, V domains shown)
# VH: B6 VH with N28A, S32A, A61V, E62D, K63S, F64V, K65T, I66G
# VL: B6 VL with N30E, N50A, N52S, T56S, S93A
# notes: as for B6
# B10: optimized anti-E-selectin antibody 1284 (antibody, human IgG1, kappa, V domains shown)
# VH: B6 VH with N28A, S32A, A61V, K63S, F64V, K65E, I66G
# VL: B6 VL with N30E, N50A, N52S, T56S, S93A
# notes: as for B6
# Biological target: T1, cynomolgus monkey E-selectin …
# Assay: AlphaLISA competition vs sialyl Lewis A-PAA-biotin
# Experimental: The neutralization ability of anti-E-selectin antibodies was measured in an AlphaLISA homogenous competition assay. […] This was incubated at room temperature for 15 minutes, followed by addition of 1.4 μL of human, mouse or cynomolgus monkey E-selectin added to a final concentration of 7 nM. This was again incubated at room temperature for 15 minutes. To this, 1.4 μL AlphaLISA beads was added (Ni-donor/SA-acceptor) for a final assay concentration of 10 μg/mL. This was incubated in the dark at room temperate for at least 10 hours. The plates were then read using the AlphaLISA protocol (Envision).
row,Binder,EC50 [nM]
1,B1,> 63
2,B2,< 1
3,B3,< 1
4,B4,< 1
5,B5,< 1

# Biological target: T2, soluble recombinant human P-selectin
# Assay: direct binding ELISA on immobilized human P-selectin, absorbance at 450 nm
# Experimental: Recombinant histidine tagged human P-, E- or L-selectin (Sino Biologicals), mouse E-selectin (Sino Biologicals), rat E-selectin (Sino Biologicals) and Cynomolgus monkey E-selectin (Sino Biologicals) stock solutions were prepared to a final concentration of 1 μg/mL in phosphate buffered saline without calcium and magnesium. Controls included an L-selectin directed antibody (BioLegend; 304811) or P-selectin directed antibody or a negative control IgG. One hundred μL per well of the diluted recombinant selectin proteins were added into a Ni-NTA HisSorb 96 well plate (Qiagen; 35061). Plates were incubated on an orbital shaker at room temperature for 2 hours. Following the incubation, the plates were washed 3 times with 200 μL of wash buffer (50 mM TRIS [trisaminomethane]; 150 mM sodium chloride; 0.05% polysorbate 20, pH 7.4). To decrease nonspecific binding, plates were treated with 200 μL of blocking buffer (BD Opteia buffer; 555213; BD Biosciences), incubated on an orbital shaker for 1 hour at room temperature and washed as described above. […] One hundred μL specific detection antibodies (described below) were added and incubated for 1 hour: [0556] […] Anti L-selectin and anti-rat-E-selectin antibodies were detected using 1 to 25000 dilution of Peroxidase-conjugated AffiniPure Goat Anti-Mouse IgG (H+L); (Jackson ImnnunoResearch Lab).
# Plates were washed and 100 μL per well of 1-Step Ultra TMB substrate (Thermo Scientific) was added and incubated for 5 minutes at room temperature. Reactions were stopped with 100 μL of 2 M sulfuric acid and absorbance read at 450 nm (Spectramax M5e).
row,Binder,binding result
1,B6,no binding (tested: 10 ug/ml)
2,B7,no binding (tested: 10 ug/ml)
3,B8,no binding (tested: 10 ug/ml)
4,B9,no binding (tested: 10 ug/ml)
5,B10,no binding (tested: 10 ug/ml)
